In publication PMC11905138:

Legend:
Conditions in all cases: reference: Flag-PKM2 wild type; sites Y105
TSG101 = TSG101 (UniProt Q99816); assay: anti-Flag co-IP, TSG101 blot
IQGAP1 [1] = molecular target: IQGAP1 (UniProt P46940); assay: anti-Flag co-IP, IQGAP1 blot
IQGAP1 [2] = molecular target: IQGAP1 (UniProt P46940); assay: anti-Flag IP, LC-MS/MS

Measured: binding against the reference

PKM2 (pyruvate kinase M2) (from UniProt P14618) Flag-PKM2 Y105F
lost: all assays above
